Results taken from patent US6645733B1, “Fluorescent intensity method for assaying binding between proteins or peptides” (Ingeneus Corporation, priority 1999, dated 2003).
No end group written: not given here. fluorescein = fluorescein label at the amino-terminal end; Flu = fluorescein

T1: human AT1 receptor (Homo sapiens, UniProt P30556)
T1 construct: purchased NEN Life Science Products Inc., Boston, Mass; host or cells: Chinese hamster ovary (CHO) cells, purified membrane preparation
T1 sequence (P30556 1-359): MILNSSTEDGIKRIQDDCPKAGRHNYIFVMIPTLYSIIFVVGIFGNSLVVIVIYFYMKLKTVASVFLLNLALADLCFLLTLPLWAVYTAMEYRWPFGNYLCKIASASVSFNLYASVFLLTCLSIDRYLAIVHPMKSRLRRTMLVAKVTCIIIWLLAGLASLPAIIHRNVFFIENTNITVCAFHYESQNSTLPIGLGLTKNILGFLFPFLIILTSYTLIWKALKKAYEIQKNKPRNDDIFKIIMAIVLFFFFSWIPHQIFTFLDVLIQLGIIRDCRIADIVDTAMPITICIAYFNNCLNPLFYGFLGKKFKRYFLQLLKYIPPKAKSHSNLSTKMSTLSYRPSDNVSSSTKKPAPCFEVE

T2: Cloned human angiotensin II AT1 receptor (purified membrane preparation derived from CHO cells) (human, UniProt P30556 1-359)
T2 construct: whole, on cells; Used as a membrane preparation, not intact cells; also called human AT1 receptor
T2 sequence (looked up): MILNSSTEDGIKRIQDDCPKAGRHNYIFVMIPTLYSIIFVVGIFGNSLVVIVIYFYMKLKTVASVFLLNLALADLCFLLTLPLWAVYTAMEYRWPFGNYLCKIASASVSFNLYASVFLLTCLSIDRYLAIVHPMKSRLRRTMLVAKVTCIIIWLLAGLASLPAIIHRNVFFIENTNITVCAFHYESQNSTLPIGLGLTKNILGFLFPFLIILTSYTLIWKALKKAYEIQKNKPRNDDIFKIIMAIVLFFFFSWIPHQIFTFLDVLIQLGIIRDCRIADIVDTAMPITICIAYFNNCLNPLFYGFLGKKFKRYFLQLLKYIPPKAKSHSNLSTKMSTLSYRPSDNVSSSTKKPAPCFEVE


How the values were obtained:
human AT1 receptor = molecular target: T1, human AT1 receptor; assay: Flu-AII:AT1 fluorescent intensity quenching binding assay; conditions: 0.005, 0.01, 0.02 and 0.05 units AT1 receptor, 10 nM probe
[1] = molecular target: T2, Cloned human angiotensin II AT1 …; assay: fluorescence intensity quenching assay in solution

Molecule	binding to AT1 receptor (fluorescent intensity versus probe alone) (human AT1 receptor)	binding result [1]
Flu-Asp-Arg-Val-Tyr-Ile (fluorescein-DRVYI) [Flu-AII(1-5)]	did not bind	
Flu-DRVYI (Synthesized by AnaSpec; also called mutant Flu-AII(1-5); mutant Flu-AII)		no binding
